{"source": "paper PMC8152684", "substrate": "NC(=O)C[C@H](N)C(=O)O", "assay": "purified protein", "details": "free enzyme in solution, 50 mM Tris-HCl pH 8.6, 37 °C", "data": [{"protein": "L-asparaginase (Asp) (Escherichia coli K-12) (protein) LPNITILATGGTIAGGGDSATKSNYTVGKVGVENLVNAVPQLKDIANVKGEQVVNIGSQDMNDNVWLTLAKKINTDCDKTDGFVITHGTDTMEETAYFLDLTVKCDKPVVMVGAMRPSTSMSADGPFNLYNAVVTAADKASANRGVLVVMNDTVLDGRDVTKTNTTDVATFKSVNYGPLGYIHNGKIDYQRTPARKHTSDTPFDVSKLNELPKVGIVYNYANASDLPAKALVDAGYDGIVSAGVGNGNLYKSVFDTLATAAKTGTAVVRSSRVPTGATTQDAEVDDAKYGFVASGTLNPQKARVLLQLALTQTKDPQQIQQIFNQY", "values": [{"measurement": "Km", "value": 140, "unit": "µM"}]}]}
